The source of these data is the DeepSol protein solubility set.

The nature of the data set: soluble on expression in E. coli; label from the status in PepcDB or PDB records.
On to “MSLAEEISQTTAADTAVTEVRTEDSSQTSSQETAVTETTQSEGTASKQLTTPAVADQTTEPTDNEPISSSDGASSPYQVTDTTEPQQTLTPADSEPQAKADVQQAAAPKKEEINPVTNLEDMSHDTNGTWEVREDGIHSNAIGKGDSFLYSQSSGKNFVYATDVTFKQNSGAAALVFRSNNDSNNKNMYAVNVDIGGHKAKFWRWVDNKDIQLIDERDVVPTADNRYTLKVVAVNNWISYYVNDILMASTGDYVLQKADKGQNTVIPEGHFGLLNWNGDMVFQNTKFALLDDTTAPLIDNITVRSDRGNVEKQGQFFSEEPLHIQYVSNDASQVSLDIAKHNPAATVTVEDKTGRVYTDPSHLPVNVGANYFTVKSTVIDSFGRTVTLTYRINVHRRQNDEVYYNELYRDQYHYSVKDGWANDPNGLVYYNGVYHLFHQFYDDTKWGPMHWAHATSTDLIHWKEEPIAFYPDSNGYMFSGCVVVDEHNSSGLFKTAKGGLVAIITANGNGQRMELAYSEDEGKTWQKYDRIVADWSNDPLQNQDFRDPKVFHWNNQWFMVLAGGPLRIYSSNNLKDWKVESTYPDLHTECPDMYPIVANDGVLKWVLSRGGRFYKVGDFKQVDGKWTFIADDAYKDKDQVMNFGKDSYAAMTYYVHDFGTETRPTIPKLTEVNWMNTWEDYCNLVADTVGQDFNGTFNLNLDLGLINENGQYILTQTPVKAYDSLRDVNTALHFKDVTVDANNTLLKDFKGDSYEIVSHFRPDEKTTKVGFNLRVGNGQATKVIYDLQTETLSIDRSQSGTILSAAFAKVNSQHVTKNADGSIDLHIYVDRASVEVFSKNNTVAGANQIFPNPEAVGASIIVEGGKAQADISVYQMKTIWTDKKDTAKPVAMNTTTAKELALQVGQSQDLQVYLAPASVRQDVEWTISDPSLVRTSQKGNVLHLTAVKKGKLTITAISKENPSLSKTFTISITLNNFKTNLKGLQSVTGKWYVDDETLYDSNTSSNDYYMASQKPGFKEYDYDIDLKYQRGLINLFVASGNIDPSQAYSVQFGDSETVRLYRFAGDTIAEANMGKRINDDQYHHIKVTKTKNSIIISVDGQEVMSHNFDQVDSYFNDAYVGLGLWDGAVEFQNFFVTDHATTPKPDSDPTPQPDAPEALAQERELIDPATGVRVILQKGELASIVRVKVSHIETNDAHTPAVLNAKDYDLFNITPIDKNEKVVAITKPATVLLPIDAGKVVDKVVYLPNTDKEENLPFTIVSLTDSNGKKQSYVRFTAEHFSEYGLVYQAENQTNLKSKEKQDNVAISYPLNLEQEVKVSSISRKYAANKTADVNSVQQTEPSVMSSSPKATLPDTGDHKTDLSQLGVLAMIGSFLVEIAGYFKKRKDEGHHHHHH”, for which the “soluble on expression in E. coli” value is given as “soluble”.

Take “MSLAEFIYTMKKVRKAHGDKVILDDVTLSFYPGAKIGVVGPNGAGKSSVLRIMAGLDKPNNGDAFLATGATVGILQQEPPLNEDKTVRGNVEEGMGDIKIKLDRFNEVAELMATDYTDELMEEMGRLQEELDHADAWDLDAQLEQAMDALRCPPADEPVTNLSGGERRRVALCKLLLSKPDLLLLDEPTNHLDAESVQWLEQHLASYPGAILAVTHDRYFLDNVAEWILELDRGRAYPYEGNYSTYLEKKAERLAVQGRKDAKLQKRLTEELAWVRSGAKARQAKSKARLQRYEEMAAEAEKTRKLDFEEIQIPVGPRLGNVVVEVDHLDKGYDGRALIKDLSFSLPRNGIVGVIGPNGVGKTTLFKTIVGLETPDSGSVKVGETVKLSYVDQARAGIDPRKTVWEVVSDGLDYIQVGQTEVPSRAYVSAFGFKGPDQQKPAGVLSGGERNRLNLALTLKQGGNLILLDEPTNDLDVETLGSLENALLNFPGCAVVISHDRWFLDRTCTHILAWEGDDDNEAKWFWFEGNFGAYEENKVERLGVDAARPHRVTHRKLTRGEGHHHHHH”: the “soluble on expression in E. coli” value was “soluble”.

With “MSLAEFSADLCLFDLDGTIVSTTVAAEKAWTKLCYEYGVDPSELFKHSHGARTQEVLRRFFPKLDDTDNKGVLALEKDIAHSYLDTVSLIPGAENLLLSLDVDTETQKKLPERKWAIVTSGSPYLAFSWFETILKNVGKPKVFITGFDVKNGKPDPEGYSRARDLLRQDLQLTGKQDLKYVVFEDAPVGIKAGKAMGAITVGITSSYDKSVLFDAGADYVVCDLTQVSVVKNNENGIVIQVNNPLTRAEGHHHHHH”, the “soluble on expression in E. coli” value is recorded as “not soluble”.

Regarding “MSLAEPRNGESAGADAVLTKAIEDALGNGTGSVTVDLPQAEGKAKAGDLVTLRYTMTTADGALVATTEESVAADKGRPRSVAFTARSRYRPEEIVAGGEGNLPGVAEAVIGMAPGEKKHLSLSADKAFGARDPQRVVTMATVKSLPRTVAIPAADYVKNFGALPVVGKELPVVPYFPARVIEVTEQQAKLQLLARDGERFTESFGAVETKVDGESVKIRLVPTIGAPFEFRGARGTITAAGEENFTVDFNHPLADRSVVLDLEVVSLTKGEKLAAISVPWLENHDQGLEKAKQEEKPAVLVLYADWCQWCKKLFGETAEDPRIKAVSDRFVWIRVNSDKEKAYKEQYGQDGYPLIVLLDRQGKVAKKLDGFRDAAGLREELNALLEGHHHHHH”, the “soluble on expression in E. coli” value is recorded as “soluble”.

Regarding “MSLAHYKKFRLSTLAAVVGIVLAVGPENSYAEAPIQFNTRFLDVKDDASLDLSRFSRKGYIMPGSYHLQVLVNQSQIVQDNVITYSVDNNDPDNTYPCLSPELVSLLGLKPEIADKMIWINAGQCLQPDQLEGMETQTDLSQSTLTVIIPQAYLEYSDEEWDPPSRWDEGIPGVLFDYNVNSQWRHAEHDDGDEYDISGNGTVGANLGAWRLRADWQANYRHENDSEDKDNFGSSSEQNWDWNRYYAWRAIPQLRAQLTLGEGSLESDIFDGFNYVGGSLITDDQMLPPNLRGYAPDISGVARTNAKVTVTQRGRVIYESQVPAGPFRIQDINETVSGDLHVKIEEQSGQVQEYDVSTASIPFLTRPGQVRYKLAAGRPQDWDHNMEGGFFTSAEASWGIANGWSLYGGAIGEQDYQALALGLGRDLALLGAFSVDVTHSRATLPEGSAYGDGTIQGNSFRASYAKDFDDIDSRLTFAGYRFSEENYMTMDEFIDTHNDDNDRQRTGHDKEMYTLTYSQNFSAINVNAYINYTHRTYWNQPNQDSYNLTLSHYFDVGEVRGISLSVNGFRNEYDNERDDGVYVSLSIPWGNNRTLSYNGSFSDDNNSNQVGYYERIDDRNNYQINAGRADNGATLDGYYRYQASYADIDVSANYQEGDYTSGGLNIQGGATLTAKGGALHRTSVNGGSRLLVDVGDEANVPISGYSTPVYTNAFGKAVIVDVNDYYRNQVKIDITQLPEDAEAILSIAQATLTEGAIGYRRMEVLSGKKAMASIRLRDGGTPPFGAEVYNSRQQQLGIVGEDGSVYLIGINPGERLQVTWEGKTQCEATLPDPLPGDLFSGLLLPCIGDASSPEATQPEEKPLLQLHTQRRTSSTQPEALSSRYPTHEGGSHHHHHH”, the “soluble on expression in E. coli” value is given as “soluble”.

Take “MSLAKFAPVQYKYIIKAEFEIDGIVDREDIIGAIFGQTEGLLGMELDLRELQKQGKLGRIEVEYKRVGNKTIGTITIPTSLKAVETSLIAAAIETVDRVGPAKARFRVKEIVDVRSSKREYIRNRAKELFVQMMSKTAPDIEELRRELEEAYYSKQLIEYGEEKLPAGPLVEKSDEIILVEGRADVVNLVKHGILNVLGMNGINIPKSVVELSKRKKVTLFIDGDRGGELVLRNMLAAGADIDYVAVAPPGREVEELTNKEILKALKSKIPLEQYIKNLRISINNDENKEKYKELLSKVFDTKKAIVFDEQFNIIDEKPLEEIDKLPSAYGIAIDKILDNETYAKIKGKYQLILALDSNVNAQERVITLKDIQEGHHHHHH”: the “soluble on expression in E. coli” value is listed as “not soluble”.

“MSLAKHIVELTDALSNKIAAGEVVERPASVVKELVENAIDAGSTVIDILVEEAGLNKITIIDNGSGIEEEDVATAFLRHATSKIKNEADLFRVHTLGFRGEALPSIASVSHLEMETSTGEAKGTTISLEGGKIIEQKSGHARKGTQIEVSQLFFNTPARLKYLKSLPTELGNITDILNRLALAHPDISFRFSHNGKPLLQTNGNGELRQVIAAIYGVSIAKKSVPVKAESLDFKISGYAVLPEVNRSNRNYISTIINGRFIKNFALVKAIQEGYHTLLPIGRFPIIVLQIEMDPIIVDVNVHPAKLEVRLSKEKELGQLISQMIKETFHKLQLIPDGEISKEGHHHHHH”: the “soluble on expression in E. coli” value is “soluble”.

Take “MSLAKLTINDIAKKAKTSKTTVSFYLNGKFDKMSPDTKRRIEQVIEETNYSPNIMARSLKLKKSNLIGVVVADITNPFSSNIVKGIGEITRRKGYQILVGSTNLDYYNEEEYFKKMLDMGVDGFIVQPTKNFDKLYPAIKNKGKKIVVLDSVSSRYTGKWVKTNNYEIVYEAVLKLAEKGYEEFILVTEAPDKLAARMERKTGFEDAVNKINCKSFIEIINENTEVDEIAEMLKINISNNKKTVIFAINGKILQKVFKAVKMEGFDVPNHVGIIGFDKWDWTMYASPSVTTIDQPTYEEGKYAAKMLIEMIEENDDFYKSEVFDCNINWEESTDEGHHHHHH”: the “soluble on expression in E. coli” value is “soluble”.
